From patent US20160272683A1 (Novo Nordisk, published 2016)
Numbered stars: 1 amine (or outer) side, 2 acyl side, 3 side chain; on linkers, the order of the positions; unused ones are H or OH. Side chains are listed from the residue outwards. * marks the point of attachment. C20 diacid = O=C(O)CCCCCCCCCCCCCCCCCCC(=O)*; γGlu = O=C(O)[C@H](CCC(=O)[*:2])N[*:1]; C12 diacid = O=C(O)CCCCCCCCCCC(=O)*

Columns and labels:
[1] = target: T1, human calcitonin receptor (human, UniProt P30988 25-474); assay: cell-based or functional assay
T1 sequence (looked up): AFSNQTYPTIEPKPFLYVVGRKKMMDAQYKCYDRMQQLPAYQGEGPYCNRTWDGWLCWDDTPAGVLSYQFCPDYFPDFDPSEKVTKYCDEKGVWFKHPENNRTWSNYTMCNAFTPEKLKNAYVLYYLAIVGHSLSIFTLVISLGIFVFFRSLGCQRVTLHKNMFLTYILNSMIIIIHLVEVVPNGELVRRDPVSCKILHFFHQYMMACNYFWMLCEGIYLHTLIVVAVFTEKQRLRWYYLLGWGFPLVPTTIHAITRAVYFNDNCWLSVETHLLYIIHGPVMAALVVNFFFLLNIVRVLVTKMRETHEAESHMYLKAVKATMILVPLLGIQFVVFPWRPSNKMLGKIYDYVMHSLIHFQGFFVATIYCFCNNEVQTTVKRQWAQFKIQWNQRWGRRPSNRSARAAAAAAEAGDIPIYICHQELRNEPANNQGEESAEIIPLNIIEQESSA

[2] = target: T2, human amylin 3(a) receptor (human calcitonin receptor co-expressed with RAMP-3) (human, UniProt P30988 25-474; O60896 24-148, limits assumed); assay: cell-based or functional assay
T2 sequence (looked up) 1: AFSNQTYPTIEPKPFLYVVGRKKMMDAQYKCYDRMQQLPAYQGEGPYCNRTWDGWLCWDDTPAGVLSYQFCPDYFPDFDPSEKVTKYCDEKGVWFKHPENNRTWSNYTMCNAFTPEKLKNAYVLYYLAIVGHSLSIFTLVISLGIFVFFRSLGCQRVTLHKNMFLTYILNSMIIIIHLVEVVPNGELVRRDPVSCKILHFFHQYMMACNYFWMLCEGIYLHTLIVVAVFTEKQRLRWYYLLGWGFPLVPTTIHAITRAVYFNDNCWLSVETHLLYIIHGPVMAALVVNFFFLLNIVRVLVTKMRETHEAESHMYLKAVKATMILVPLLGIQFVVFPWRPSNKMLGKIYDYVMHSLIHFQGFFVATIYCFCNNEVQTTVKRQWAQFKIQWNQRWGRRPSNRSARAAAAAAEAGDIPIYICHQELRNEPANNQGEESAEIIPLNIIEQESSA
T2 sequence (looked up) 2: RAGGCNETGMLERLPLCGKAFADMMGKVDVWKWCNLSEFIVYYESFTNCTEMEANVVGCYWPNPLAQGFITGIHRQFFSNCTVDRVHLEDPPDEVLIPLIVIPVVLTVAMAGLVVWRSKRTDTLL

B1: [N-terminal(C20 diacid-gGlu), des1, 12H, 30S, 31G]mimylin (peptide)
peptide: {C20 diacid-γGlu}-ASELSTAALGHLSAELHELATLPRTETGSGSP-NH2
hCTR funct. EC50 (pM) [1]: 12 pM
hAmylin-R funct. EC50 (pM) [2]: 17 pM

B2: [N-terminal(C20 diacid-gGlu), des1, 30S, 31G, 33G]mimylin (peptide)
peptide: {C20 diacid-γGlu}-ASELSTAALGRLSAELHELATLPRTETGSGSG-NH2
SMILES: CC(C)C[C@H](NC(=O)[C@H](C)NC(=O)[C@H](C)NC(=O)[C@@H](NC(=O)[C@H](CO)NC(=O)[C@H](CC(C)C)NC(=O)[C@H](CCC(=O)O)NC(=O)[C@H](CO)NC(=O)[C@H](C)NC(=O)CC[C@H](NC(=O)CCCCCCCCCCCCCCCCCCC(=O)O)C(=O)O)[C@@H](C)O)C(=O)NCC(=O)N[C@@H](CCCNC(=N)N)C(=O)N[C@@H](CC(C)C)C(=O)N[C@@H](CO)C(=O)N[C@@H](C)C(=O)N[C@@H](CCC(=O)O)C(=O)N[C@@H](CC(C)C)C(=O)N[C@@H](Cc1c[nH]cn1)C(=O)N[C@@H](CCC(=O)O)C(=O)N[C@@H](CC(C)C)C(=O)N[C@@H](C)C(=O)N[C@H](C(=O)N[C@@H](CC(C)C)C(=O)N1CCC[C@H]1C(=O)N[C@@H](CCCNC(=N)N)C(=O)N[C@H](C(=O)N[C@@H](CCC(=O)O)C(=O)N[C@H](C(=O)NCC(=O)N[C@@H](CO)C(=O)NCC(=O)N[C@@H](CO)C(=O)NCC(N)=O)[C@@H](C)O)[C@@H](C)O)[C@@H](C)O
hCTR funct. EC50 (pM) [1]: 66 pM
hAmylin-R funct. EC50 (pM) [2]: 142 pM

B3: [N-terminal(acetyl), des1, 19K(C20 diacid-gGlu), 30S, 31G]mimylin (peptide)
peptide: Ac-ASELSTAALGRLSAELHK([γGlu-C20 diacid])LATLPRTETGSGSP-NH2
hCTR funct. EC50 (pM) [1]: 19 pM
hAmylin-R funct. EC50 (pM) [2]: 32 pM

B4: [N-terminal(C20 diacid-gGlu), des1, 30S, 31G, 33S]mimylin (peptide)
peptide: {C20 diacid-γGlu}-ASELSTAALGRLSAELHELATLPRTETGSGSS-NH2
SMILES: CC(C)C[C@H](NC(=O)[C@H](C)NC(=O)[C@H](C)NC(=O)[C@@H](NC(=O)[C@H](CO)NC(=O)[C@H](CC(C)C)NC(=O)[C@H](CCC(=O)O)NC(=O)[C@H](CO)NC(=O)[C@H](C)NC(=O)CC[C@H](NC(=O)CCCCCCCCCCCCCCCCCCC(=O)O)C(=O)O)[C@@H](C)O)C(=O)NCC(=O)N[C@@H](CCCNC(=N)N)C(=O)N[C@@H](CC(C)C)C(=O)N[C@@H](CO)C(=O)N[C@@H](C)C(=O)N[C@@H](CCC(=O)O)C(=O)N[C@@H](CC(C)C)C(=O)N[C@@H](Cc1c[nH]cn1)C(=O)N[C@@H](CCC(=O)O)C(=O)N[C@@H](CC(C)C)C(=O)N[C@@H](C)C(=O)N[C@H](C(=O)N[C@@H](CC(C)C)C(=O)N1CCC[C@H]1C(=O)N[C@@H](CCCNC(=N)N)C(=O)N[C@H](C(=O)N[C@@H](CCC(=O)O)C(=O)N[C@H](C(=O)NCC(=O)N[C@@H](CO)C(=O)NCC(=O)N[C@@H](CO)C(=O)N[C@@H](CO)C(N)=O)[C@@H](C)O)[C@@H](C)O)[C@@H](C)O
hCTR funct. EC50 (pM) [1]: 38 pM
hAmylin-R funct. EC50 (pM) [2]: 63 pM

B5: [N-terminal(C20 diacid-gGlu), des1, 30S, 31G, 33A]mimylin (peptide)
peptide: {C20 diacid-γGlu}-ASELSTAALGRLSAELHELATLPRTETGSGSA-NH2
SMILES: CC(C)C[C@H](NC(=O)[C@H](C)NC(=O)[C@H](C)NC(=O)[C@@H](NC(=O)[C@H](CO)NC(=O)[C@H](CC(C)C)NC(=O)[C@H](CCC(=O)O)NC(=O)[C@H](CO)NC(=O)[C@H](C)NC(=O)CC[C@H](NC(=O)CCCCCCCCCCCCCCCCCCC(=O)O)C(=O)O)[C@@H](C)O)C(=O)NCC(=O)N[C@@H](CCCNC(=N)N)C(=O)N[C@@H](CC(C)C)C(=O)N[C@@H](CO)C(=O)N[C@@H](C)C(=O)N[C@@H](CCC(=O)O)C(=O)N[C@@H](CC(C)C)C(=O)N[C@@H](Cc1c[nH]cn1)C(=O)N[C@@H](CCC(=O)O)C(=O)N[C@@H](CC(C)C)C(=O)N[C@@H](C)C(=O)N[C@H](C(=O)N[C@@H](CC(C)C)C(=O)N1CCC[C@H]1C(=O)N[C@@H](CCCNC(=N)N)C(=O)N[C@H](C(=O)N[C@@H](CCC(=O)O)C(=O)N[C@H](C(=O)NCC(=O)N[C@@H](CO)C(=O)NCC(=O)N[C@@H](CO)C(=O)N[C@@H](C)C(N)=O)[C@@H](C)O)[C@@H](C)O)[C@@H](C)O
hCTR funct. EC50 (pM) [1]: 40 pM
hAmylin-R funct. EC50 (pM) [2]: 67 pM

B6: [N-terminal(acetyl), des1, 4K(C20 diacid-gGlu), 30S, 31G]mimylin (peptide)
peptide: Ac-ASK([γGlu-C20 diacid])LSTAALGRLSAELHELATLPRTETGSGSP-NH2
hCTR funct. EC50 (pM) [1]: 27 pM
hAmylin-R funct. EC50 (pM) [2]: 36 pM

B7: [N-terminal(C12 diacid)]mimylin (peptide)
peptide: {C12 diacid}-EASELSTAALGRLSAELHELATLPRTETGPESP-NH2
hCTR funct. EC50 (pM) [1]: 8 pM
hAmylin-R funct. EC50 (pM) [2]: 23 pM

B8: [N-terminal(C20 diacid-gGlu), des1, 15E, 30S, 31G]mimylin (peptide)
peptide: {C20 diacid-γGlu}-ASELSTAALGRLSEELHELATLPRTETGSGSP-NH2
SMILES: CC(C)C[C@H](NC(=O)[C@H](C)NC(=O)[C@H](C)NC(=O)[C@@H](NC(=O)[C@H](CO)NC(=O)[C@H](CC(C)C)NC(=O)[C@H](CCC(=O)O)NC(=O)[C@H](CO)NC(=O)[C@H](C)NC(=O)CC[C@H](NC(=O)CCCCCCCCCCCCCCCCCCC(=O)O)C(=O)O)[C@@H](C)O)C(=O)NCC(=O)N[C@@H](CCCNC(=N)N)C(=O)N[C@@H](CC(C)C)C(=O)N[C@@H](CO)C(=O)N[C@@H](CCC(=O)O)C(=O)N[C@@H](CCC(=O)O)C(=O)N[C@@H](CC(C)C)C(=O)N[C@@H](Cc1c[nH]cn1)C(=O)N[C@@H](CCC(=O)O)C(=O)N[C@@H](CC(C)C)C(=O)N[C@@H](C)C(=O)N[C@H](C(=O)N[C@@H](CC(C)C)C(=O)N1CCC[C@H]1C(=O)N[C@@H](CCCNC(=N)N)C(=O)N[C@H](C(=O)N[C@@H](CCC(=O)O)C(=O)N[C@H](C(=O)NCC(=O)N[C@@H](CO)C(=O)NCC(=O)N[C@@H](CO)C(=O)N1CCC[C@H]1C(N)=O)[C@@H](C)O)[C@@H](C)O)[C@@H](C)O
hCTR funct. EC50 (pM) [1]: 25 pM
hAmylin-R funct. EC50 (pM) [2]: 41 pM

B9: [N-terminal(acetyl), des1, 16K(C20 diacid-gGlu), 30S, 31G]mimylin (peptide)
peptide: Ac-ASELSTAALGRLSAK([γGlu-C20 diacid])LHELATLPRTETGSGSP-NH2
hCTR funct. EC50 (pM) [1]: 28 pM
hAmylin-R funct. EC50 (pM) [2]: 21 pM

B10: [N-terminal(C20 diacid-gGlu), des1, 30S, 31G, 33L]mimylin (peptide)
peptide: {C20 diacid-γGlu}-ASELSTAALGRLSAELHELATLPRTETGSGSL-NH2
SMILES: CC(C)C[C@H](NC(=O)[C@H](CO)NC(=O)CNC(=O)[C@H](CO)NC(=O)CNC(=O)[C@@H](NC(=O)[C@H](CCC(=O)O)NC(=O)[C@@H](NC(=O)[C@H](CCCNC(=N)N)NC(=O)[C@@H]1CCCN1C(=O)[C@H](CC(C)C)NC(=O)[C@@H](NC(=O)[C@H](C)NC(=O)[C@H](CC(C)C)NC(=O)[C@H](CCC(=O)O)NC(=O)[C@H](Cc1c[nH]cn1)NC(=O)[C@H](CC(C)C)NC(=O)[C@H](CCC(=O)O)NC(=O)[C@H](C)NC(=O)[C@H](CO)NC(=O)[C@H](CC(C)C)NC(=O)[C@H](CCCNC(=N)N)NC(=O)CNC(=O)[C@H](CC(C)C)NC(=O)[C@H](C)NC(=O)[C@H](C)NC(=O)[C@@H](NC(=O)[C@H](CO)NC(=O)[C@H](CC(C)C)NC(=O)[C@H](CCC(=O)O)NC(=O)[C@H](CO)NC(=O)[C@H](C)NC(=O)CC[C@H](NC(=O)CCCCCCCCCCCCCCCCCCC(=O)O)C(=O)O)[C@@H](C)O)[C@@H](C)O)[C@@H](C)O)[C@@H](C)O)C(N)=O
hCTR funct. EC50 (pM) [1]: 31 pM
hAmylin-R funct. EC50 (pM) [2]: 55 pM
